Measurements published in the nanobody polyreactivity screen of Harvey et al. (2022).

Experiment: yeast display, Sf9 membrane polyspecificity reagent, FACS + sequencing; frameworks hold sequencing errors
Method in brief: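 Polyreactivity labels are assigned by the sorting gate from which each nanobody was recovered. The gates were low and high (top ~1%), set on anti-HA fluorescence for expression and streptavidin fluorescence for reagent binding. Before sorting, galactose-induced (36–48 hours) yeast display cells were stained for 1 hour at 4 °C with 10% biotinylated, detergent-solubilized Sf9 membrane reagent.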

Q: With “QFQLVESGRGLVQAGGSLRLSCAASVRTFGFNAMGRYRQAPRKERELVAAISGSGGRTYYADSVKGRFTISRDKAKNTVYLQMNSLKPEDTAVYYCAAGARRGGSGYWGQGTQVTVSS” as the sequence, how does the “polyreactivity (PSR sort gate)” value read?
A: high polyreactivity

Q: With “QFQLVESGVGLVQAGGSLRLSCAASGFTFWYYAMGWYRQAPGKERELVARITSRAADTYADSVKGRFTISRDNAKNTVYLQMNSLKPEDTAVYYCNAEFGRARDDDYSGQGTQVTVSS” as the sequence, how does the “polyreactivity (PSR sort gate)” value read?
A: low polyreactivity

Q: With “QFQLVESGVGLVQAGGSLRLSCAASVRIFITNAMGWYRQAPGKERELVAAISGGSTYYGDSVKGRFTISRDNAKNTVYLQMNSLKPEDTAVYYCAVDNYYTPWYPYLGYDSWGQGTQVTVSS” as the sequence, how does the “polyreactivity (PSR sort gate)” value read?
A: low polyreactivity

Q: With “QFQLVESVGCLVQAGGSLRLSCAASGILFSWYAMGWYRQPPGKERELVAAISKGGGSTYYADSVKGRFTISRDNAKNTVYLQMNSLIPEDTAVYYCAADSSYGYGYWGQGTQVTVSS” as the sequence, how does the “polyreactivity (PSR sort gate)” value read?
A: high polyreactivity

Q: Which “polyreactivity (PSR sort gate)” value does the source give for “QFQLVESVGGLVQAGGSLRLSCAASGNIFPAYAMGWYRQAPGKERELVAAISKSGGRTYYADSVKGRFTISRDNAKNTVYLQMNSQKPEDTAVYYALLTVLRAVPYSVRYDYCGQGTQVTVSS” here?
A: high polyreactivity

Q: Which “polyreactivity (PSR sort gate)” value does the source give for “QFQLVESVGGLVQAGGSLRLSCAASGSTFVRNELGWYRQAPGKERELVAANSVDGSSTYYADSVKGRFTISRDNAKNTVYLQINSLKPEDTAVYYCNADWDYRDFYDITYDYWGQGTQVTVSS” here?
A: low polyreactivity

Q: Which “polyreactivity (PSR sort gate)” value does the source give for “QFQLVESVGGLVQAGGSLRLSCAASGTTIPSYAMGWYRQAPGKERELVASITYSDGTTRYADSVKGRFTISRDNAKNTVYLQMNSLKPEDTAVYYCNAVYYREGMDYWGQGTQVTVSS” here?
A: low polyreactivity

Q: With “QFQLVESVVGLVQAGGSLRLSCAASGTTFGVNDMRWYRQAPGKEREFVADITTSGGSTYYADSVKGRFTISRDNAKNTVYLQMNSLKPEDTAVYYCAADLWPFEHDDYWGQGTQVTVSS” as the sequence, how does the “polyreactivity (PSR sort gate)” value read?
A: low polyreactivity

Q: With “QFQLVETGGGLVQAGGSLRLSCAASGRTFRFNAMGWYRQAPRKEREFVAAITSGGGTYYADSVKGRFTISRDNAKNPVYLQMNCLKPEDTAVYYCAAPRQYYLMVYWGQGTQVTVSS” as the sequence, how does the “polyreactivity (PSR sort gate)” value read?
A: low polyreactivity

Q: Which “polyreactivity (PSR sort gate)” value does the source give for “QFQRVESGGGLVQAGGSLRLSSAASASIFSVYTMGWSRQAPGKERELDAAISTGGGSKYYADSVKGRFTISRDNAKNTVYLQMKSLKPEDTSVYYCGTDYGWPPSYWYDSFGQGTQVTVSS” here?
A: low polyreactivity

Q: For “QGHLVESLGGLVQAGGSLRLSCAASGRIIGVYAMGWSRQAPGKERELVAAISEGGGSTNYADSVKGRFTISRDNSKNTVYLQMNSLKPEDTAVYYCNADADEYRDYHDYDYWGQGTQVTVSS”, which “polyreactivity (PSR sort gate)” value is on record?
A: low polyreactivity

Q: With “QGPHVESGGGLVQAGGSLRLSCAASGSTFYNYAMGWYIQAPGKEREFVATISFSGGSTYYADSVKGRFTISRDNAKNTVYLQMNSLKPEETAVYYCAARALTRKATGYYLTDYWGQGTQVTVSS” as the sequence, how does the “polyreactivity (PSR sort gate)” value read?
A: high polyreactivity

Q: With “QGQHVESGGGLVQAGGSLRLSCAASGFTFAHNAMGWDRQAPGKETDFVAAITSRGGSTYYADSVKGRFTISRDNAKNSVYFQMYSPNPEDTAVYYCAADDYIYTVYSYTYQYWGQGTHVTVSS” as the sequence, how does the “polyreactivity (PSR sort gate)” value read?
A: low polyreactivity

Q: For “QGQHVESGVGLVQAGGSLRLSCAASVFMFESNAMGWYRQAPGKERELVAAITSAGRTYYADSVKGRFTISRDNAKNTVYLQMNSLKPEETAVYYCNAPRSRYRYDYWGQGTQVTVSS”, which “polyreactivity (PSR sort gate)” value is on record?
A: high polyreactivity

Q: Which “polyreactivity (PSR sort gate)” value does the source give for “QGQLEESCGGLVQAGARLRISCEASGRTFRFYTMGGYRPAPGKEMELVAAISSNTGTTYADSVKGRFTISRDNAKNTVYLQMNSLKQEDTAVFFCAARVRRQYYNRPYYYWGQGTQVTVSS” here?
A: high polyreactivity

Q: For “QGQLEESGGGLVQAGGSLRLSCAASGRTFGPYAMGRYRQAPGKERELVAAIRSAGSTYYADSVKGRFTISRDNAKNTVYLQMISLKPEDTAVYYCADDIARHLTGFAYYRLDYWGQGTQVTVSS”, which “polyreactivity (PSR sort gate)” value is on record?
A: low polyreactivity

Q: With “QGQLEESGGGLVQAGGSLRLSCAASGSIFTLYAMGWYRQAPGKERELVAAITRSGGSTYYADSVKGRFTISRDNAKNTVYLQMNSLKPEDTAVYYCAADKAPYSTEGDYWGQGTQVTVSS” as the sequence, how does the “polyreactivity (PSR sort gate)” value read?
A: high polyreactivity

Q: For “QGQLEESGGGLVQAGGSLRLSCPASGYILGGNAMGWYRQAPGKERELVARIRVSSGSTYADSVKGRFTISRDNAKNTVYLQMNSLKPEDTAVYYCAASISSRYRYTAYDYWGQGTQVTVSS”, which “polyreactivity (PSR sort gate)” value is on record?
A: high polyreactivity

Q: Which “polyreactivity (PSR sort gate)” value does the source give for “QGQLGDSGGGLVQAGGSLRLSCAASGLTFWGKVMGWSRPAPGKERELVAAITSGGSTYYADSVKGRFTISRDNAKNTVFLQMNSQKPEDTAVYYCATAFYYSYSEYYYWGQGTQVTVSS” here?
A: high polyreactivity

Q: Which “polyreactivity (PSR sort gate)” value does the source give for “QGQLLESGGGLVQAGGSLRLSCAASGRTFRSYAMGWYRQAPGKESELVAASSQRGGSSFYADSVKGRFTISRDNAKNSVYLQMNSLKPEDTAVYYCANPVRSGYDYWGQGSQVTVSS” here?
A: high polyreactivity

Q: With “QGQLVDSGGGLVQAAGSLRLSCDASGRTFVYNDMGWYRQAPGKERELVATISVSGCSTYYADSVKGRFTISRDNAKNTVYLQMISLKPEDTAVYYCAARRTWYEDHDYWGQGTQVTVSS” as the sequence, how does the “polyreactivity (PSR sort gate)” value read?
A: low polyreactivity

Q: With “QGQLVDSGGGLVQAGGSLRLSCAASGSIVRPNAMGWYRPAPGKEREFVAAITSSSGPTYYADSVKGRFTISRDNAKNTVYLQMNSLKPEDTAVYYCAAKYTSRSYKYDYWGHGTQVTVSS” as the sequence, how does the “polyreactivity (PSR sort gate)” value read?
A: high polyreactivity

Q: For “QGQLVESCGGLVQAGGSLRLSCAASGRTFYYYAMGWYRQAPRKERELVAAMTSGGRTNSADSVKGRFTSSRDKATNTDSLQMNSLKPEDTAVYYCAKPPYSQYEFDYWGQGTQVTVSS”, which “polyreactivity (PSR sort gate)” value is on record?
A: high polyreactivity

Q: For “QGQLVESGGALVQAGGSLRLICAASGRTFAAYSMGWYRQAPGKERELVAAISIGGSTNYADSVKVRFTISRDNAKNSVYLQMNSLKPEDSAVYYCAAPGRRYLRARIRYEYWGQGTQLTVSS”, which “polyreactivity (PSR sort gate)” value is on record?
A: high polyreactivity

Q: Which “polyreactivity (PSR sort gate)” value does the source give for “QGQLVESGGALVQAGGSLRLSCAASGRILRYYAMGWNRQAPGKERELVAVITSSDGSTYYADSVKGRFTISRDNAKNTVYLQQNSLKPEDTAVDYCAAAPLWRVASWWDPYRRYDYWGQGTQVTVSS” here?
A: low polyreactivity

Q: For “QGQLVESGGCLVQAGGSLRLSCDASGFIFTSYAMGWYRQAPGQEWELVAVITASGGSTYYADSVKGRFTISRDNAKNTVYLQMNSLKPEDTAVYYCNRYYQSYYGWTGPYGYWGQGTQVTVSS”, which “polyreactivity (PSR sort gate)” value is on record?
A: high polyreactivity

Q: Which “polyreactivity (PSR sort gate)” value does the source give for “QGQLVESGGGIVQAGVSLRLSCAASGSIFTANAMGWYRQAPGKVRELVAAISRSGGRTYYADSVKGRFTISRDNAKNTVYLQMNSLNPEDTAVYYCNVGSFNTSGYDYWGQGTQVTVSS” here?
A: high polyreactivity

Q: Which “polyreactivity (PSR sort gate)” value does the source give for “QGQLVESGGGLGQAGGSLRLSCAASGSTSGIYAMGWYRQAPGKERELVAAIDTSGGSSYADSVKGRFTISRDNAKHTVYLQMNSLKPEDTAVYYCAKPFCSNSWSHGYWGQGTQVTVSS” here?
A: low polyreactivity

Q: With “QGQLVESGGGLVQAGGSLRFSCAASGRIFSVYDMGWYRQAPGTERELVAAIDTSDGSTNYADSVKGRFTISRDNAKNSVYLQMNSLKPEDTAVYYCNATDSYVPFDYWGQGTQVTVSS” as the sequence, how does the “polyreactivity (PSR sort gate)” value read?
A: low polyreactivity

Q: For “QGQLVESGGGLVQAGGSLRLRCAASGFTFAVNTMGWYRQAPVKERELVAAITASGGSTHYADSVKGRFTISRDNAKNNVYLQMNSLKPEDTAVYYCAARPRLYQYYYWGQGTQVTVSS”, which “polyreactivity (PSR sort gate)” value is on record?
A: high polyreactivity

Q: With “QGQLVESGGGLVQAGGSLRLSCAAAGYTLGVNAMGWSRQAPGKERELVAAINYIDTRTYYAASVKGRFTISRDNAKNTVYLQMNSLNPEDTAVYYCAARPYVPWVKRYYYWGQGTQVTVSS” as the sequence, how does the “polyreactivity (PSR sort gate)” value read?
A: low polyreactivity

Q: Which “polyreactivity (PSR sort gate)” value does the source give for “QGQLVESGGGLVQAGGSLRLSCAASGFTFSPYAMGSYRQAPGKERELVAVISGGGSTYYADSVKGRFTISRDNAKNTVYLQMNSLKPEDTAVYYCAKRFYRSYYWGQGTQVTVSS” here?
A: high polyreactivity

Q: For “QGQLVESGGGLVQAGGSLRLSCAASGGIFGNYAMGGYRQAPGKERELVAVIDSSDGSTHYADSVKGRFSISRDNAKTTVYLQINSLKAEDTAVYYCATLGFWNYWTFDYWGQGTQVTVSS”, which “polyreactivity (PSR sort gate)” value is on record?
A: low polyreactivity

Q: For “QGQLVESGGGLVQAGGSLRLSCAASGLTFKGYAMGWYRQAPGKERELVAAITWDTGSTYYADSVKGRFTISRDNAKNTVYLQMNSLKPEDTAVYYCAAVGSTTTGVRRRGYWGQGTQVTVSS”, which “polyreactivity (PSR sort gate)” value is on record?
A: high polyreactivity

Q: With “QGQLVESGGGLVQAGGSLRLSCAASGNTFNVYAMGWYRQAPGKARELVAAITLSGGSTYYADSVKGRFTISRDNSKNTVYLQMNSLKPEDTAFYYCNAEEDGTDYDYWGQGTQVTVSS” as the sequence, how does the “polyreactivity (PSR sort gate)” value read?
A: low polyreactivity

Q: For “QGQLVESGGGLVQAGGSLRLSCAASGRIFTYYAMGWYRQAPGKERELVAAISWSGGSTYYADSVKGRFTISRDNAKNTVYLQMNSLKPEDTAVYYCAAVGYAGLPYGLRPNNSGYWGQGTQVTVSS”, which “polyreactivity (PSR sort gate)” value is on record?
A: low polyreactivity

Q: With “QGQLVESGGGLVQAGGSLRLSCAASGRTFGINAMGWYRQAPGKERELVAVISFGDGGTYYADSVKGRFTISRDNAKNTVYLQMNSLKPEDTAVYYCATDYQSTSVWGGHFVINPYDYWGQGTQVTVSS” as the sequence, how does the “polyreactivity (PSR sort gate)” value read?
A: low polyreactivity

Q: Which “polyreactivity (PSR sort gate)” value does the source give for “QGQLVESGGGLVQAGGSLRLSCAASGRTFGYYAMRWYRQARGKERELVAVITRSGGTTYYADSVKGRFTISRDNAKNTVYLQMKSLKPEDTAVYYCHPAYYTGMYWGQGTQVTVSS” here?
A: high polyreactivity

Q: For “QGQLVESGGGLVQAGGSLRLSCAASGRTFRGNTMGWYRQAPGKERELVATISSRSSSTYYADSVKGRFTISRDNAKNTVYLQMHSLKPEDTAVYYCAVTNPLVRSGYSRYFGRYDYWGQGTQVTVSS”, which “polyreactivity (PSR sort gate)” value is on record?
A: high polyreactivity

Q: Which “polyreactivity (PSR sort gate)” value does the source give for “QGQLVESGGGLVQAGGSLRLSCAASGSIFDTYAMGWYRQAPGKERELVAAITRRAGSTYYADSVKGRFTISRDHAKNTLYFQMNSLKPEETSVYYCAAGYDRYPGGIDEYWGQGTQVTVSS” here?
A: low polyreactivity

Q: With “QGQLVESGGGLVQAGGSLRLSCAASGSIVFYYGMGWYRQAPGKERELVAAITWSGDSPYDADSVKGRFTISRDNAKNTVYLQLNSLKPEDTAVYYCNADQTSYYYPGNYDYWGQGTQVTVSS” as the sequence, how does the “polyreactivity (PSR sort gate)” value read?
A: high polyreactivity
